Measured values from the nanobody polyreactivity screen of Harvey et al. (2022).

Experiment: yeast display, Sf9 membrane polyspecificity reagent, FACS + sequencing; frameworks hold sequencing errors
Method in brief: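 Polyreactivity labels are assigned by the sorting gate from which each nanobody was recovered. The gates were low and high (top ~1%), set on anti-HA fluorescence for expression and streptavidin fluorescence for reagent binding. Before sorting, galactose-induced (36–48 hours) yeast display cells were stained for 1 hour at 4 °C with 10% biotinylated, detergent-solubilized Sf9 membrane reagent.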

Sequence	polyreactivity (PSR sort gate)
QVQLVESGGGLVQAGGSLRLSCAASGLILANYAMGWYRQAPGKERELVAAISSSGGSTYYADSVKGRFTISRDNAKNTVYLQMNSLKPEDTAVYYCAAYPLYRRRWTGDYWGQGTQVTVSS	high polyreactivity
QVQLVESGGGLVQAGGSLRLSCAASGLILKYYAMGWYRQAPGKEREFVAAITRRGGITYYADSVKGRFTISRDNAKNTVYLQMNSLKPEDTAVYSCAADPILGSLAYWRYSYPLYDYWGQGTQVTVSS	low polyreactivity
QVQLVESGGGLVQAGGSLRLSCAASGLILNYYTMGWYRQAPGKERELVATISSSTGSTYYADSVKGRFTISRDNAKNTVYLQMNSLKPEDTAVYYCAADHWSYWQIYDYWGQGTQVTVSS	low polyreactivity
QVQLVESGGGLVQAGGSLRLSCAASGLILRKYAMGWYRQAPGKEREFVAAITQTGSRTYYADSVKGRFTISRDNAKNPVYLQMNSLKPEDTAVYYCAADLPRWGSYGYGKMDHWGQGTQVTVSS	high polyreactivity
QVQLVESGGGLVQAGGSLRLSCAASGLILSSNAMGWYRKAPGQERELVAAITWDGDRTYADSVKGRFTISRDNAKNTVYLQMNSLKPEDTAVYYCAARIGTGVLTGRGANSHMDYWGQGTQVTVSS	low polyreactivity
QVQLVESGGGLVQAGGSLRLSCAASGLILYTYAMGWSRQAPGQVRELVAAINSGGRTYYADAVKGRFTISRDNAKNTVYLQMNSLKPEDTAVYYCAADYGSRVRGFNYWGQGTQVTVSS	low polyreactivity
QVQLVESGGGLVQAGGSLRLSCAASGLILYWYAMGWYRQAPGKERELVAAISISGGSTYYADSVKGRFTISRDNAKNTVYLQMNSLKPDDTAVYYSAAVYFYSWEGDGDYWGLGTQVTVSS	low polyreactivity
QVQLVESGGGLVQAGGSLRLSCAASGLISESYAMGWYRQAPGKERELVAAISSGGSTYYADSVKGRFTISRDNAKNTVYLQMNSLKPEDTAVYYCNATGYKYNYGHAYYYAVDYWGQGTQVTVSS	low polyreactivity
QVQLVESGGGLVQAGGSLRLSCAASGLIVPWYDMGWYRQAPGKERELVAAINWRGGSTYYADSVKGRFTISRDNAKNTVYLQMKSLKPEDTAVYYCAACYLHRDSYIYDYWGQGTQVTVSS	low polyreactivity
QVQLVESGGGLVQAGGSLRLSCAASGLIYFYAMGWYRQAPGKERELVAAISSTGGRTYYADSVKGRFTIARDNAKNTVYLQMNSVKPEDTAVYYCNVLVYNVYTRGYYSYKYYFWGQGTQVTVSS	high polyreactivity
QVQLVESGGGLVQAGGSLRLSCAASGLIYPVYAMGWYRQAPGKEREFVAAITYDGGNTYYADSVKGRFTISRDNAKNTVYLQMNSLKPEDTAVYYCAAEGVELISTRDPHDDYWGQGTQVTVSS	low polyreactivity
QVQLVESGGGLVQAGGSLRLSCAASGLIYSYNAMGWTRQAPGKERELVAAISRSGGTPYYADSVKGRFTISRDNANNTVYLQMNSLKPEDTEVYYCAAEIRFLSWEYDYWGQGTQVSVSS	high polyreactivity
QVQLVESGGGLVQAGGSLRLSCAASGLIYSYYVMGWNRQAPGKERELVPAINESGGRTYYADSVKGRFTISRDNAKNTVYLEMNSLKPEDTAVYYCAASVLNKIQGYRDYYCGQGTQVTVSS	low polyreactivity
QVQLVESGGGLVQAGGSLRLSCAASGLKFGVNPMGWYRPAPGKERELVAAISRDSDTNYADSVKGRFTISRDNAKNTVYLQMISLKPEDTAVYYFNAYSEWPVPSPPRSQSLDYWGQGTQVTVSS	low polyreactivity
QVQLVESGGGLVQAGGSLRLSCAASGLMVTYYAMCGYRPAPGKARELVAAINYSGGSTYDADSVKGRFTISRDNAKTTVYLLMNSLKPEDTAVYYCAARRFTQTEGPMGYWGQGTQVTFSS	low polyreactivity
QVQLVESGGGLVQAGGSLRLSCAASGLNFGVNAMGLYRQAPGKERELVAAISRSGGSTYYADSVKGRFTISRDNAKNSVYLQMNSLKPEDTAVYYCAAAAWDPKGSRYDYWGHGTQVTVSS	low polyreactivity
QVQLVESGGGLVQAGGSLRLSCAASGLNFSYYAMGWYRQAPGKERELVAAINSGGSTYYADSVKGRFTISRDNAKNTVYLQMNRLKQEDTAVYYCAAHLWYHGHLFDYWGQGTQVTVSS	high polyreactivity
QVQLVESGGGLVQAGGSLRLSCAASGLNFYDNVMGWSRPAPGKEREFVAAITSIGGSTYYADSVKGRFTISRDNAMNTVYLQMISLKPEDTAVYYCIGKSKYYSPNYDYWGQGTQVTVSS	low polyreactivity
QVQLVESGGGLVQAGGSLRLSCAASGLNFYGYFMGWYRQAPGKERELVAAISATGGSTYYADSVKGRFTISRDTAKNTVYLQMNSLKPEETAVYYCAATYYSYTWFSQYYYWGQGTQVTVSS	high polyreactivity
QVQLVESGGGLVQAGGSLRLSCAASGLNFYRNAMGWSRQAPGKERELVAAISASGGRTYYADSVKGRFTISRDNAKNTVYLPMNSLKPEDTAVYYCAAKSLWLSMDYWGQGTQVTVSS	high polyreactivity

Sequence	polyreactivity (PSR sort gate)
QVQLVESGGGLVQAGGSLRLSCAASGLNQANYAMVWYRQAPGQEREMVAAISSSGGSTYYADSVKGRFTISRDNAKNTVYLQMNSLKPEDTAVYYCAAYPLYRRSWTGDYWGQGTQVTVSS	high polyreactivity
QVQLVESGGGLVQAGGSLRLSCAASGLPFRYNVMGWYRQAPGKETALGATISTSAGDTYYADSVKGRFTISRDNAKNTVYLQMNSLKPEDTAVYYCNAEAWYSVEYDDWGQGTQVTVSS	low polyreactivity
QVQLVESGGGLVQAGGSLRLSCAASGLSFSYYAMVWYRQAPGKERELVAAITSSGGNTYYADSVKGRFTISRDNANNTVYLQMNSLKPEDTAVYYCNDRRYLRGYGYGYWGQGTQVTVSS	high polyreactivity
QVQLVESGGGLVQAGGSLRLSCAASGLSLDVNVMGWYRPAPGKERELVAGIRSDSRTNYADSVKGRFTISRDNAKNTVYLQMNRLKPEDTAVYYCATRDKYISYYTYPYYSWGQGTQVTVSS	low polyreactivity
QVQLVESGGGLVQAGGSLRLSCAASGLSSLRMLWDGRDRRLGKKGSWLPLITSGGDSTNYADSVKGRFTISRDNAKNTVYFQMNSLKPEDTAVYYCAADLDYPYGYLGQGTQVTVSS	low polyreactivity
QVQLVESGGGLVQAGGSLRLSCAASGLTFADNTMGWYRQAPGKERELVAAIDWSGGGTDYADSVKGRFTISRDNAKNTDYLQMNSLKPEDTAVYYCNAERTSWEDDYWGQGTQVTVSS	low polyreactivity
QVQLVESGGGLVQAGGSLRLSCAASGLTFAFNAMGWYRPAPGKERELVAAISKSGGSTYYADSVKGRFTISRDNAKNTVYLQMNSLKPEDTAVYYCAAGFWYYSYPTLYEYGYWGQGTQVTVSS	low polyreactivity
QVQLVESGGGLVQAGGSLRLSCAASGLTFAKYAMGWYRQAPGKERELVAAIRSGDDTTYADSVKGRFTISRDNAMNTVYLQMISLKPEDTAVYYCAARPIHYPPYYYWGQGTQVTVSS	high polyreactivity
QVQLVESGGGLVQAGGSLRLSCAASGLTFALYAMGWYRQAPGKERELVAAITGSGGSTYYADSVKGRFTISRDTAKNSVYLQMNSLKPEDTAVYYCNKLFYRWRIVDKYYYCGQGTQVTVSS	high polyreactivity
QVQLVESGGGLVQAGGSLRLSCAASGLTFASNAMGWYRQAPGKERELVAAISWSDGSTYYADSVKGRFTISRDNAKNTVYLQMNSLKPEDTAVYYCAAESYFFSPRTREKFDYWGQGTQVTVSS	low polyreactivity
QVQLVESGGGLVQAGGSLRLSCAASGLTFASYAMGWYRPAPGKERELVARISRSGGSTYYADSVKGRFTISRDNAKNTVYLQMNSLKPEDTAVYYCAADYIFRRYPVGGIYDYDYWGQGTQVTVSS	high polyreactivity
QVQLVESGGGLVQAGGSLRLSCAASGLTFAYNTMGWYRQAPGKEREFVASISSSGGNTYYADSVKGRFTISRDNAKNTVYLQMNSLKPEDTAVYYCAAKKKYHYVASYKRFEYWGQVTQVTVSS	low polyreactivity
QVQLVESGGGLVQAGGSLRLSCAASGLTFAYYDMGWYRPAPGKERELVAAITSGGTTNYADSVKGRFTISRDNAKNTVYLQMNSQKPEDTADYYCAADRYYWGRYTLNYWGQGTQVTVSS	low polyreactivity
QVQLVESGGGLVQAGGSLRLSCAASGLTFDDYAMGWYRPAPWKEREFVATITLRGGSTYYADSVKGRFTISRDNAKNTVYLQLNSLKPEDTAVYYCNTDLGYSLEWDYDYWGQGTQVTVSS	low polyreactivity
QVQLVESGGGLVQAGGSLRLSCAASGLTFDDYAMGWYRQAPGKERELVAAINWSGSNTYYADSVKGRFTISRDNAKNTVYLQMNSLKPEDTAVYYCATYSRIFKWEYYYWGQGTQVTVSS	high polyreactivity
QVQLVESGGGLVQAGGSLRLSCAASGLTFDKNVMGWYRQAHGKERELVAAISRSGGTTYYADSVKGRFTISRDNAKYTVYLQMNSLKPEDTAVYYCAKRAWTGYGYYYWGQGTQVTVSS	high polyreactivity
QVQLVESGGGLVQAGGSLRLSCAASGLTFDLYNMGVYRKAPGKERELVAAISLSGGSTYYADSVKGRFTISRDNAKNTVYLQMNILKPDYTAVYYCAAAHSSSVIVEYDYWGQGTQVTVSS	low polyreactivity
QVQLVESGGGLVQAGGSLRLSCAASGLTFDSNAMGWYRQAPGKERELVAAISGSVGSTYYADSVKGRFTISRDNAKNTVYLQMNSLKPEDTAVYYCNASSVDKGYDYWGQGTQVTVSS	low polyreactivity
QVQLVESGGGLVQAGGSLRLSCAASGLTFDVYTMGWYRQAPGKERELVATISETYYADSVKGRFTISRDNAKNTVYLQMNSLKPEDTAVYYCAANGFKAQYRDIVYDYGYWGQGTQVTVSS	low polyreactivity
QVQLVESGGGLVQAGGSLRLSCAASGLTFDYYAMGWYRQAPGKERELVAVISRVGSTYYADSVKGRFTISRDNAKNTVYLQINSLKPEDTAVYYCAADLWHSYQDMYYWGQGTQVTVSS	low polyreactivity
